According to PMC4958245:
pKd: −log10 of the molar value.

Molecular target: recombinant Fc−ICAM-1 (human) (UniProt P05362)
Assay: BLI; Octet QKe; DBLβ domains on an Fc−ICAM-1 probe; apparent Kd from double-reference-subtracted data of three concentrations, global 1:1 Langmuir fit

Chain of UniProt P05362 (P05362 28-480): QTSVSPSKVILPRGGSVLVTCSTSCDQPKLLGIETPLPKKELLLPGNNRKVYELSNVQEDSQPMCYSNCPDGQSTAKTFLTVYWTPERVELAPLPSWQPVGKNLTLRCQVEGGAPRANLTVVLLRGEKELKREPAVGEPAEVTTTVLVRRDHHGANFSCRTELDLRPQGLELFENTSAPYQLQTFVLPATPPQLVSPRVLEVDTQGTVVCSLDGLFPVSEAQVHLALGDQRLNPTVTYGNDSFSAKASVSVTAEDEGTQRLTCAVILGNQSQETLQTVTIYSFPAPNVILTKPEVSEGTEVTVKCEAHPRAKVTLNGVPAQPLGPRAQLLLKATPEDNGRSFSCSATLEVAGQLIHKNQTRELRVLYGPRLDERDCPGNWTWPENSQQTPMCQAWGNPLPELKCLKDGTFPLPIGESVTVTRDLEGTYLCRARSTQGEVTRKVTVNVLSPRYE

IT4var07DBLβ1 (N726-C1211) (domain or fragment)
pKd: 8.06
